Results published in article PMC6889417, “Derepression of LOXL4 inhibits liver cancer growth by reactivating compromised p53” (Cell Death and Differentiation, 2019).

Target: wild-type p53, endogenous (human (endogenous in SK-Hep1, HepG2), UniProt P04637 1-393)
Experiment: cell-based or functional assay

Sequence of wild-type p53, endogenous (P04637 whole entry): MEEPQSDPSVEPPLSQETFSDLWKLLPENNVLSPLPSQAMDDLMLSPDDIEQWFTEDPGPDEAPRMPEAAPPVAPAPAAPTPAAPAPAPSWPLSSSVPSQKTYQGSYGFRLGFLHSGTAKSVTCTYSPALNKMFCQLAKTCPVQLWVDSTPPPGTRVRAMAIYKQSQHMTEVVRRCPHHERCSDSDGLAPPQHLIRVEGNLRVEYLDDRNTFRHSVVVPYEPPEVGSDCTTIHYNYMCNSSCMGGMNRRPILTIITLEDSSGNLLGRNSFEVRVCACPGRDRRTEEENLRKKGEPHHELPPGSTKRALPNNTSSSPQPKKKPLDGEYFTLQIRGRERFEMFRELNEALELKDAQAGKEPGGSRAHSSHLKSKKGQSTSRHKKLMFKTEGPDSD

expression of the p53 target genes PIG3 and BAX (quantitative real time PCR) after 5-aza-CR (5 μM, 16 h) in WT cells against 2DR cells: > 10 fold
B1: lysyl oxidase-like 4 (LOXL4), endogenous (natural protein, UniProt Q96JB6 25-756, looked up)
chain: QSLGTTKLRLVGPESKPEEGRLEVLHQGQWGTVCDDNFAIQEATVACRQLGFEAALTWAHSAKYGQGEGPIWLDNVRCVGTESSLDQCGSNGWGVSDCSHSEDVGVICHPRRHRGYLSETVSNALGPQGRRLEEVRLKPILASAKQHSPVTEGAVEVKYEGHWRQVCDQGWTMNNSRVVCGMLGFPSEVPVDSHYYRKVWDLKMRDPKSRLKSLTNKNSFWIHQVTCLGTEPHMANCQVQVAPARGKLRPACPGGMHAVVSCVAGPHFRPPKTKPQRKGSWAEEPRVRLRSGAQVGEGRVEVLMNRQWGTVCDHRWNLISASVVCRQLGFGSAREALFGARLGQGLGPIHLSEVRCRGYERTLSDCPALEGSQNGCQHENDAAVRCNVPNMGFQNQVRLAGGRIPEEGLLEVQVEVNGVPRWGSVCSENWGLTEAMVACRQLGLGFAIHAYKETWFWSGTPRAQEVVMSGVRCSGTELALQQCQRHGPVHCSHGGGRFLAGVSCMDSAPDLVMNAQLVQETAYLEDRPLSQLYCAHEENCLSKSADHMDWPYGYRRLLRFSTQIYNLGRTDFRPKTGRDSWVWHQCHRHYHSIEVFTHYDLLTLNGSKVAEGHKASFCLEDTNCPTGLQRRYACANFGEQGVTVGCWDTYRHDIDCQWVDITDVGPGNYIFQVIVNPHYEVAESDFSNNMLQCRCKYDGHRVWLHNCHTGNSYPANAELSLEQEQRLRNNLI
